{"source": "paper PMC10320395", "about": "“Molecular insights into LINC complex architecture through the crystal structure of a luminal trimeric coiled-coil domain of SUN1” (Frontiers in Cell and Developmental Biology, 2023)", "proteins": {"B1": {"name": "SUN1 α1-α2-SUN (entire structured luminal domain of human SUN1, amino-acids 362–785) (domain or fragment, UniProt O94901 362-785, looked up)", "chain": "MSGVEQQVASLSGQCHHHGENLRELTTLLQKLQARVDQMEGGAAGPSASVRDAVGQPPRETDFMAFHQEHEVRMSHLEDILGKLREKSEAIQKELEQTKQKTISAVGEQLLPTVEHLQLELDQLKSELSSWRHVKTGCETVDAVQERVDVQVREMVKLLFSEDQQGGSLEQLLQRFSSQFVSKGDLQTMLRDLQLQILRNVTHHVSVTKQLPTSEAVVSAVSEAGASGITEAQARAIVNSALKLYSQDKTGMVDFALESGGGSILSTRCSETYETKTALMSLFGIPLWYFSQSPRVVIQPDIYPGNCWAFKGSQGYLVVRLSMMIHPAAFTLEHIPKTLSPTGNISSAPKDFAVYGLENEYQEEGQLLGQFTYDQDGESLQMFQALKRPDDTAFQIVELRIFSNWGHPEYTCLYRFRVHGEPVK", "notes": "human SUN1, Uniprot O94901, amino-acids 362–785 (α1, α2 and the C-terminal SUN domain); Theoretical trimer 142 kDa; source: E. coli BL21 (DE3), purified (Ni-NTA, amylose, ion exchange, TEV cleavage, ion exchange, SEC); not shown: His, N-terminal, cleaved; MBP, N-terminal, cleaved"}, "B2": {"name": "SUN1 α1-α2 (human SUN1 amino-acids 362–584) (domain or fragment, UniProt O94901 362-584, looked up)", "chain": "MSGVEQQVASLSGQCHHHGENLRELTTLLQKLQARVDQMEGGAAGPSASVRDAVGQPPRETDFMAFHQEHEVRMSHLEDILGKLREKSEAIQKELEQTKQKTISAVGEQLLPTVEHLQLELDQLKSELSSWRHVKTGCETVDAVQERVDVQVREMVKLLFSEDQQGGSLEQLLQRFSSQFVSKGDLQTMLRDLQLQILRNVTHHVSVTKQLPTSEAVVSAVSE", "notes": "human SUN1, Uniprot O94901, amino-acids 362–584 (α1 and α2 coiled-coils joined by their natural linker); Theoretical trimer 75 kDa; source: E. coli BL21 (DE3), purified (Ni-NTA, amylose, ion exchange, TEV cleavage, ion exchange, SEC); not shown: His, N-terminal, cleaved; MBP, N-terminal, cleaved"}, "B3": {"name": "SUN1 α1 (luminal coiled-coil domain of human SUN1, amino-acids 362–401) (domain or fragment, UniProt O94901 362-401, looked up)", "chain": "MSGVEQQVASLSGQCHHHGENLRELTTLLQKLQARVDQME", "modifications": "also: C376 partly oxidised to S-hydroperoxycysteine in crystal chain B, occupancy 0.62", "notes": "human SUN1, Uniprot O94901, amino-acids 362–401 (α1 coiled-coil domain of the luminal region); Expressed from pMAT11 as a TEV-cleavable His-MBP fusion; tags removed with TEV protease; About one zinc ion per trimer was found in solution; the crystal lacked zinc; also called SUN1 362–401; source: E. coli BL21 (DE3), purified (Ni-NTA, amylose, ion exchange, TEV cleavage, ion exchange, SEC); not …"}, "B4": {"name": "MBP-SUN1 α1 (MBP fusion of human SUN1 amino-acids 362–401) (domain or fragment, UniProt O94901 362-401, looked up)", "chain": "MSGVEQQVASLSGQCHHHGENLRELTTLLQKLQARVDQME", "notes": "human SUN1, Uniprot O94901, amino-acids 362–401 (α1 coiled-coil domain); The uncleaved His-MBP fusion from pMAT11, used to give greater molecular mass resolution in SEC-MALS; theoretical monomer 49 kDa; The His tag probably stays with the MBP (surmise); source: E. coli BL21 (DE3), purified (Ni-NTA, amylose, ion exchange); not shown: MBP, N-terminal, kept"}, "B5": {"name": "SUN1 α2 (second luminal coiled-coil domain of human SUN1, amino-acids 421–584) (domain or fragment, UniProt O94901 421-584, looked up)", "chain": "ETDFMAFHQEHEVRMSHLEDILGKLREKSEAIQKELEQTKQKTISAVGEQLLPTVEHLQLELDQLKSELSSWRHVKTGCETVDAVQERVDVQVREMVKLLFSEDQQGGSLEQLLQRFSSQFVSKGDLQTMLRDLQLQILRNVTHHVSVTKQLPTSEAVVSAVSE", "notes": "human SUN1, Uniprot O94901, amino-acids 421–584 (α2 coiled-coil domain); Theoretical monomer 19 kDa, so the cleaved protein stood in SEC-MALS; source: E. coli BL21 (DE3), purified (Ni-NTA, amylose, ion exchange, TEV cleavage, ion exchange, SEC); not shown: His, N-terminal, cleaved; MBP, N-terminal, cleaved"}}, "key": {"[1]": {"target": "the molecule itself", "experiment": "SEC-MALS; cleaved SUN1 constructs at > 5 mg/mL; Superdex 200 Increase 10/300 GL, 20 mM HEPES pH 7.5, 150 mM KCl, 2 mM DTT"}, "[2]": {"target": "the molecule itself", "experiment": "crystal structure; SUN1 362–401 at 3.5 mg/mL, sitting drops, 20°C; spacegroup P2(1), a SUN1 trimer in the asymmetric unit; 2.07 Å"}, "[3]": {"target": "the molecule itself", "experiment": "SEC-MALS; MBP-SUN1 α1 at 20 mg/mL and 1 mg/mL after purification, and at 20 mg/mL after over-night incubation with 2 mM zinc acetate (trimer stabilised); Superdex 200 Increase 10/300 GL, 20 mM HEPES pH 7.5, 150 mM KCl, 2 mM DTT; trimer to dimers to monomers"}}, "note": "Where “and” joins values, the source holds several entries; their conditions need not be identical. Equal entries are not always repeated. Where no end group is shown, it is not given here.", "data": [{"protein": "B1", "values": [{"measurement": "stoichiometry N", "setting": "[1]", "value": 3}]}, {"protein": "B2", "values": [{"measurement": "stoichiometry N", "setting": "[1]", "value": 3}]}, {"protein": "B3", "values": [{"measurement": "binding result", "setting": "[2]", "value": "binds"}]}, {"protein": "B4", "values": [{"measurement": "stoichiometry N", "setting": "[3]", "value": "3 and 2"}]}, {"protein": "B5", "values": [{"measurement": "stoichiometry N", "setting": "[1]", "value": "3 and 2"}]}]}
